Measured values: publication PMC3258126
pKd: −log10 of the molar value.

Tested on: rP20 WT (Bamboo mosaic virus satellite RNA (satBaMV, clone pBSF4))
Test: EMSA

Q: With WT satBaMV RNA transcript as the substance, how does the pKd read?
A: 7.51
